The nanobody polyreactivity screen of Harvey et al. (2022)

Assay: yeast display, Sf9 membrane polyspecificity reagent, FACS + sequencing; frameworks hold sequencing errors
Method in brief: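 Synthetic nanobody libraries on Saccharomyces cerevisiae BJ5465 were galactose-induced for 36–48 hours, stained 1 hour at 4 °C with 10% biotinylated, detergent-solubilized Sf9 membrane reagent and enriched on streptavidin microbeads. FACS then separated cells into low and high (top ~1%) gates by anti-HA (expression) and streptavidin (reagent binding) fluorescence. Genes were colony-PCR amplified, MiSeq 2 × 250 sequenced and CDR-length filtered. A clone's polyreactivity label is that of its gate of origin.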

Sequence	polyreactivity (PSR sort gate)
QVQLHESVGRLVQEGGGLRVSCAASGSISSTGFMGWSRQAPGKEGEPVAAIAPGTTTYYADSVKGRFTISRDNAKNTVYLQMNCLRPEDTAVYYCAVYTDNRVAFLYWGQGTQVTVSS	low polyreactivity
QVQLVESGGGLVQAGGSLRLSCPASGRTFYKNAMGWYRQAPGKERELVAAITSGGSTNYADSVKGRFTISRDNAKNTVYLQMNSLKSEDTAVYYCAAQQFPYYRSRYSYINKYDYWGQGTQVTVSS	high polyreactivity
QVQIVESGGGLVQAGGSLRLSCAASGFTFRVYAMGWYRPAPGKERELVAAISARGGSTYYADSVKVRFTISRDNAKNTVDLQMNSLKPEDTAVYYCAAEPSGKRSKFYYWGQGTQETVSS	high polyreactivity
QVQLVESGGGLVQAGGSLRLSCAASGSTSPAYAMGWYRQAPGKERELVAVITGSGASTYYADSVKGRFTISRDNAKNTVYLQMNSLKPEDTAVYYCAADVGFGVVFYDYWGQGTQVTVSS	low polyreactivity
QVQLVESVRGSVQAGGSLRLSCAASGSTFYENAMGWYRPAPGKVRELVAAITWSGGRTYYADSVKGRFTISRDNAKNTVYLQMYSLKAEDTAVYYCNARARSRKFYYWGQGTQVTVSS	high polyreactivity
HVQLVESGGGLVQAGGSLRLSCAASGSIFFVYDMGWYRQAPGKERELVAAITWSGGRTTYADSVKGRFTISRDNAKNTVYLQMNSLKPVDTAVYYCAAGRVRLRILWGKRGWYDYWGQGTQVTVSS	low polyreactivity
QVQLVESGGGLVQAGGSLRLSCAPSGFTFGDYAMGWYRQAPGKERELVAAISWSGSNTYYADSVKGRFTLSRDNAKNTVYLQMNSLKPEDTAVYYCNADYDPEDMDYWGQGTQVTVSS	low polyreactivity
QVQLVESGGGLVQAGGSLRFSCAASGSIFPYAMGWSIQEPGKERELVAAITSGVRTNYADSVKGRFTISRDNAKNPVDLQMNSLKPEATEVYYCAVLPRGSNGMDYWGQGTQVTVSS	low polyreactivity
QVQLVESGGGLVQAGGSLRLSCAASGRIFINVLGWSRQAPGKETELVATITNSGGSTYYADSVKGRFTISRDNAKNTVYLQMNSLKPEDTAVYYCAKRSYHRYGVYRYDYWGQGTQLTVSS	high polyreactivity
QVQLVESGGGLVQAGGSLRLSCAASGSIFDSYAMGWYRQAPGKERELVASISSDGGGTYYADSVKGRFTISRDNAKNTVYLQMNSLKPEDTAVYYCARTRTYNSRTMDYWGQGTQVTVSS	low polyreactivity
QVQVVESGGGLVHAGGSHRLSCAASGSIFPPYSMGWYRQAPGKEREFVAAISYSGGSTYYADSVKGRFTISRDNGKHTVYFQMNSLKPEDTAVYYCGADRYGFYLESYYWGQGTQGTVSS	low polyreactivity
QVQLVESGGGLVQAGGSLRLSCAASGRTSRQYAMGWYRQAPGKEREFVAAITWSDSGTYYADSVKGRFTISRDNAKNTVYLQMNSLKPEDTAVYYCAAERYLSFDRYLYEYYYWGQGTQVTVSS	low polyreactivity
QVQHVESGGGLVQAGGSLRLSCAASGSTFDDNVMGWYRQAPGKERELVAAISSSGGSTYYADSVKGRFTISRDNAKNTVYLQMNSLKPEDTAVYYCNAVYFGLWGYYARRSYNYWGQGTQVTASS	low polyreactivity
QVQLVESGGGLVQAGGSLRLSCAASGRTFQLNAMGWYRQAPGKERELFAAISTRGGSTYYADSVKGRFTISRDNAKNTVYLQMNSLKPEDTAVYYCATDPSFSRGYKEGGGYDYWGQGTQVTVSS	high polyreactivity
QVQLVESGGGLVQAGGSLRLSCAASGRTFSRNAMGWYRQAPGKERELVAGISWRGTSTYYADSVKGRFTISRDNAKNTVYLQMNSLKPEYTAVYYCNRVYEYWSEYDYWGQGTQVTVSS	high polyreactivity
QVQLVESGGGIVQAGGSLRLSCAATGFTFVYYAMGWYRQEPGKERELVAAISSRGGSTNYADSVKGRFTISRDNAKKTVYLQMNSLKPEDTAVYYCAARANTKKPYYYWGQGTQVTVSS	high polyreactivity
QVQLVDSGGGLVQAGGSLRLTCAASGSTFDTNSVGWYRQAPGKERELVAAITSGGNTYADSVKGRFTISRDNAKNTVYFQMNSLKAEDTAVYYCAAEDVFTCWYDYWGQGTQVNVSS	low polyreactivity
